What was measured:
RetGC (Homo sapiens) = RetGC (Homo sapiens) (UniProt Q02846); settings: cited from earlier work
[1] = target: the molecule itself; assay: SEC; analytical SEC, Superdex 75 Increase 10/300 GL, six dilutions (87-2 µM injected); 20 mM Tris-HCl pH 8.0, 100 mM NaCl, 1 mM DTT, 5 mM CaCl2; Ca2+-bound; Kd from a 3-parameter fit of elution volume against concentration; dimer to monomers
[2] = target: the molecule itself; assay: MST; NT-647-NHS-labelled hGCAP1 with dilutions of unlabelled hGCAP1; 20 mM Tris-HCl, 150 mM KCl, 5 mM MgCl2, 2.5 mM EGTA, pH 7.5, 1 mM DTT, 0.05% Tween20; Mg2+-bound; dimer to monomers
[3] = target: the molecule itself; assay: MST; NT-647-NHS-labelled hGCAP1 with 16 dilutions of unlabelled hGCAP1 (46.6 µM to 11.4 nM); 20 mM Tris-HCl, 100 mM NaCl, pH 7.5, 1 mM DTT, 5 mM CaCl2, 0.05% Tween20; 24 °C; Ca2+-bound; dimer to monomers
[4] = target: the molecule itself; assay: SEC; analytical SEC, Superdex 75 Increase 10/300 GL, dilution series; 20 mM Tris-HCl pH 8.0, 100 mM NaCl, 1 mM DTT, 5 mM MgCl2, 2.5 mM EGTA; Mg2+-bound; Kd from a 3-parameter fit of elution volume against concentration; dimer to monomers

RetGC (Homo sapiens), sequence (Q02846 52-1103): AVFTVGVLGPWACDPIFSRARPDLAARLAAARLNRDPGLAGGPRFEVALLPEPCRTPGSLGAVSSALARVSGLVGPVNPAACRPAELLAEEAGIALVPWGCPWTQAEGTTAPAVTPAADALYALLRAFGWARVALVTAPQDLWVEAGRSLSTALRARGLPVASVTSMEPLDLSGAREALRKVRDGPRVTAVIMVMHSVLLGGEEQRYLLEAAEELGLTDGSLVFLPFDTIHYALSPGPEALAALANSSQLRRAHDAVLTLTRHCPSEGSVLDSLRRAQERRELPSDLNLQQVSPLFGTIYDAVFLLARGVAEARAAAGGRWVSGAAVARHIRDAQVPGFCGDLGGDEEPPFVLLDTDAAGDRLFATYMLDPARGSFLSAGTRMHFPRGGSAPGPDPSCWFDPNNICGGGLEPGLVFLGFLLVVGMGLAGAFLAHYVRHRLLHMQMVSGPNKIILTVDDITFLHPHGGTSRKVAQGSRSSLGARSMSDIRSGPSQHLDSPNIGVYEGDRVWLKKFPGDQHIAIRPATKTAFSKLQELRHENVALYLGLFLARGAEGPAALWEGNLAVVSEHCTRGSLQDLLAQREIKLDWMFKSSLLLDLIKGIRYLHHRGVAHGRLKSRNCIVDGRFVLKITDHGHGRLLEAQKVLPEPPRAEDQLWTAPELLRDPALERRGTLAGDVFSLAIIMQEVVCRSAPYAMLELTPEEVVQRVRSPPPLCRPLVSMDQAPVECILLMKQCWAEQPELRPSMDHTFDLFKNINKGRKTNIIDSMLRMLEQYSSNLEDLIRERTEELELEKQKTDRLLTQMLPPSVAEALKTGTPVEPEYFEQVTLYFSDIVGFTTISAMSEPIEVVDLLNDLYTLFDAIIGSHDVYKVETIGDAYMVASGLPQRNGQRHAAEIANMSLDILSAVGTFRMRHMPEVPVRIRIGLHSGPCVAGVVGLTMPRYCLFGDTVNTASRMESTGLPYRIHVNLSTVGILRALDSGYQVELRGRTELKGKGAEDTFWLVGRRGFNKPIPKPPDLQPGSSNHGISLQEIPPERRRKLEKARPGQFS

In the case of GCAP1 (from UniProt P43080), the Kd (RetGC (Homo sapiens)) is given as 3.2 µM.

B1: human guanylyl cyclase-activating protein 1 (hGCAP1), N-terminally myristoylated, E6S (natural protein, UniProt P43080 1-201, looked up)
chain: MGNVMSGKSVEELSSTECHQWYKKFMTECPSGQLTLYEFRQFFGLKNLSPSASQYVEQMFETFDFNKDGYIDFMEYVAALSLVLKGKVEQKLRWYFKLYDVDGNGCIDRDELLTIIQAIRAINPCSDTTMTAEEFTDTVFSKIDVNGDGELSLEEFIEGVQKDQMLLDTLTRSLDLTRIVRRLQNGEQDEEGADEAAEAAG
modifications: N-terminal myristoylation (myristoylated Gly at the N-term); in the MST experiments the labelled copy carries the dye NT-647-NHS on primary amines (lysine residues), about 1:1
notes: printed as 201 amino acids, 22.9 kDa; E6S needed for myristoylation in E. coli; In MST a dye-labelled copy was titrated with unlabelled protein; also called human GCAP1; recombinant human (h) GCAP1; source: E. coli BL21-CodonPlus RP, co-expressed with yeast N-myristoyltransferase, purified (ion exchange, SEC)
With B1 the Kd [1] was 8.8 ± 0.7 µM, the “stoichiometry N” value [1] was 2 and the Kd [2] was 77.2 ± 8.9 µM. It also gave a Kd [3] of 9.4 ± 1.3 µM and a Kd [4] of 45 ± 15 µM.

Reference: publication PMC7600425, “Modulation of Guanylate Cyclase Activating Protein 1 (GCAP1) Dimeric Assembly by Ca^2+ or Mg^2+: Hints to Understand Protein Activity” (Biomolecules, 2020)
